{"source": "patent US20120040896", "key": {"[1]": {"test_system": "GST-BRCA1 fusion protein A509+S694 (T509A mutant, nucleotides 1323-2538)"}, "[2]": {"test_system": "GST-BRCA1 fusion protein T509 (nucleotides 1323-1886)", "sequence (chain, as listed by the source)": "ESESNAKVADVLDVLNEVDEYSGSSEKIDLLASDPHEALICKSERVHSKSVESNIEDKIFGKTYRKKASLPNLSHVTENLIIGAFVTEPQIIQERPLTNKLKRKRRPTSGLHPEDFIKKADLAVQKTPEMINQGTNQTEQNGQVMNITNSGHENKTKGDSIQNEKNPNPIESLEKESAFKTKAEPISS"}, "[3]": {"test_system": "GST-BRCA1 fusion protein S694/T696 (nucleotides 1926-2538)", "sequence (chain, as listed by the source)": "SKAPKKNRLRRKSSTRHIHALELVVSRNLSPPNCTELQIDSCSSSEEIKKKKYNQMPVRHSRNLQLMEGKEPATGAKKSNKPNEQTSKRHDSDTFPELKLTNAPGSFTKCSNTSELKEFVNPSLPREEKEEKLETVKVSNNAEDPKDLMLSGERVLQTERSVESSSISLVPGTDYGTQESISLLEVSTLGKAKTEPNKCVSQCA"}, "[4]": {"test_system": "GST-BRCA1 fusion protein E509+S694 (phospho-mimic T509E mutant, nucleotides 1323-2538)"}, "[5]": {"test_system": "GST-BRCA1 fusion protein with a T509A mutation (A509, nucleotides 1323-1886)"}, "[6]": {"test_system": "GST-BRCA1 fusion protein wild-type T509+S694 (nucleotides 1323-2538)", "sequence (chain, as listed by the source)": "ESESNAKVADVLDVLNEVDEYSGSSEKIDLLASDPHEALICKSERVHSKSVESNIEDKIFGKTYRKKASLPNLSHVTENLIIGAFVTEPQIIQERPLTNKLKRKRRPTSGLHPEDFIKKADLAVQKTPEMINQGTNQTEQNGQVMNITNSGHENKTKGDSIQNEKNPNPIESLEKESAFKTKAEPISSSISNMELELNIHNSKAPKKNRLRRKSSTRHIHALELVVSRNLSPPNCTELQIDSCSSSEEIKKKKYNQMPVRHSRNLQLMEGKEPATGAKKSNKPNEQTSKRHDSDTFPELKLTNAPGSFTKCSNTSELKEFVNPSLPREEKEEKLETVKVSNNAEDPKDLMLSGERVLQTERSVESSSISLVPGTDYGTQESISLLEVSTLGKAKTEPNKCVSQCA"}, "[7]": {"test_system": "purified full length BRCA1 protein (ProteinOne)"}, "[8]": {"test_system": "GST-BRCA1 fusion protein T1246 (nucleotides 3714-4310)", "sequence (chain, as listed by the source)": "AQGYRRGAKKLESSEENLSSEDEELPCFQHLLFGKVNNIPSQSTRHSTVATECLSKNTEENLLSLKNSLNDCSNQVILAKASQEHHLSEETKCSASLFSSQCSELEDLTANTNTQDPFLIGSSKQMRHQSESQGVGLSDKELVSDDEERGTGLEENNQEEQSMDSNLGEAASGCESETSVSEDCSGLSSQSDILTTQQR"}}, "data": [{"substance": "purified active Akt1", "values": [{"measurement": "in vitro Akt kinase assay (phosphorylation signal)", "setting": "[1]", "result": "equally phosphorylated by Akt, with the intensity of these signals approximately equal to one half of the signal obtained with the wild-type T509+S694 construct"}, {"measurement": "in vitro Akt kinase assay (phosphorylation)", "setting": "[2]", "result": "both the T509 and S694/T696 constructs were strongly phosphorylated"}, {"measurement": "in vitro Akt kinase assay (phosphorylation)", "setting": "[3]", "result": "both the T509 and S694/T696 constructs were strongly phosphorylated"}, {"measurement": "in vitro Akt kinase assay (phosphorylation signal)", "setting": "[4]", "result": "equally phosphorylated by Akt, with the intensity of these signals approximately equal to one half of the signal obtained with the wild-type T509+S694 construct"}, {"measurement": "in vitro Akt kinase assay (phosphorylation)", "setting": "[5]", "result": "A fusion protein with a T509A mutation was not phosphorylated"}, {"measurement": "in vitro Akt kinase assay (phosphorylation signal)", "setting": "[6]", "result": "the signal obtained with the wild-type T509+S694 construct"}, {"measurement": "in vitro kinase reaction (phosphorylation)", "setting": "[7]", "result": "full length BRCA1 is phosphorylated by Akt in vitro"}, {"measurement": "in vitro Akt kinase assay (phosphorylation)", "setting": "[8]", "result": "T1246 did not appear to be phosphorylated"}]}]}
